Experimental data reported in patent US12553037B2, “Engineered class 2, type V repressor systems” (Scribe Therapeutics Inc., priority 2021, dated 2026).

How the values were obtained:
[1] = Editing assays comparing gRNA scaffolds 316 and 174
HBEGF locus = type: cell-based, human; conditions: abundance of KRAB domain before vs after selection; 2 ng/mL diphtheria toxin for 48 hours; spacer 34.28; HEK293T

B1: 316 scaffold: chimeric gRNA scaffold, SEQ ID NO: 59352, 89 nucleotides (nucleic acid)
guide: ACUGGCGCUUCUAUCUGAUUACUCUGAGCGCCAUCACCAGCGACUAUGUCGUAGUGGGUAAAGCUCCCUCUUCGGAGGGAGCAUCAGAG
modifications: listed as RNA, further chemistry not given here
For B1, which “performance in editing assays relative to gRNA scaffold 174” value [1] is on record?
Its value is “perform comparably or more favorably than gRNA scaffold 174”.

B2: DOMAIN_26749: KRAB domain derived from the king cobra, Ophiophagus hannah; SEQ ID NO: 57755 (protein)
chain: STPVTFEDVVVYFTAAEWVHLTNWQRDFYQAVMMETYELVASVAGDGVPMAEDEEGGVERPVWQYIPRGKRRRKTPQPRAD
modifications: Ophiophagus hannah
For B2, which “log2(fold change)” value (HBEGF locus) is on record?
Its value is “highest log2(fold change)”.
